Biological target: T1, human PSMA on cells (Cho-hPSMA, CHO-K1 cells overexpressing full-length human PSMA) (human, UniProt Q04609 1-750)
T1 construct: whole, on cells; also called cell surface PSMA; PSMA-expressing Lncap cells
Assay: cell ELISA (OD450), Cho-hPSMA cells
Method: Experiment 2: Cells were cultured and inoculated onto a cell plate using the same method as in Experiment 1. The antibodies were serially diluted, and the antibody solutions were added to the cell plate at 100 μL/well. The plate was incubated at 4° C. for 1 h and then washed. An HRP-Goat Anti-human IgG (H+L) secondary antibody dilution (1:8000) was added to the cell plate at 100 μL/well, and the plate was incubated at 4° C. for 1 h and then washed by centrifugation. After color development with TMB, the reaction was stopped with 0.1 M sulfuric acid, and OD450 values were measured.

T1 sequence (Q04609 whole entry): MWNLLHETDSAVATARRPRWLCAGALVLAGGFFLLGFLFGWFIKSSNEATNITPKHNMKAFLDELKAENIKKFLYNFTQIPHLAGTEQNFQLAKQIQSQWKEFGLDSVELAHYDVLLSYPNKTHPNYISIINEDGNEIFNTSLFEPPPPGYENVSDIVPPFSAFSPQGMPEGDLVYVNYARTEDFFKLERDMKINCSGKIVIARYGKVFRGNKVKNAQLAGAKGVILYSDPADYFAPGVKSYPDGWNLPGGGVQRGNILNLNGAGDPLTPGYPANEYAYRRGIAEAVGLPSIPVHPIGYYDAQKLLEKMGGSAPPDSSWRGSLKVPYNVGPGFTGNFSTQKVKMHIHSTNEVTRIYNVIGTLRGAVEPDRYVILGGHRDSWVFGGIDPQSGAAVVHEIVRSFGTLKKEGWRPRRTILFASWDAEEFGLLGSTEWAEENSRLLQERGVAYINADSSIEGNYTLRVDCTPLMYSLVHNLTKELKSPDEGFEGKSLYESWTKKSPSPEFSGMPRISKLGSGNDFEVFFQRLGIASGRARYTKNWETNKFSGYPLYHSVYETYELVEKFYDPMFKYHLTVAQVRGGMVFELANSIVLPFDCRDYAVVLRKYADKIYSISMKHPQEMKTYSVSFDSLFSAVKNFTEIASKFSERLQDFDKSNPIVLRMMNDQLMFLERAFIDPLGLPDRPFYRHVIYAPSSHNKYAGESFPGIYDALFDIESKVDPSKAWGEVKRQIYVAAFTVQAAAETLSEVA

Row | Binder | EC50 [µg/mL]
1 | hu50H1L1 (antibody, human IgG1, kappa) heavy: not shown light: DIVMTQSPLSLPVTPGEPASISCRSSQSILHSNGNTYLEWYLQKPGQSPQLLIYRVSNRFSGVPDRFSGSGSGTDFTLKISRVEAEDVGVYYCFQGLHVPPTFGQGTKLEIKRTVAAPSVFIFPPSDEQLKSGTASVVCLLNNFYPREAKVQWKVDNALQSGNSQESVTEQDSKDSTYSLSSTLTLSKADYEKHKVYACEVTHQGLSSPVTKSFNRGEC | 0.0679
2 | hu50H2L2 (antibody, human IgG1, kappa) heavy: not shown light: DVFMTQSPLSLPVTPGEPASISCRSSQSILHSNGNTYLEWYLQKPGQSPQLLIYRVSNRFSGVPDRFSGSGSGTDFTLKISRVEAEDVGVYYCFQGLHVPPTFGQGTKLEIKRTVAAPSVFIFPPSDEQLKSGTASVVCLLNNFYPREAKVQWKVDNALQSGNSQESVTEQDSKDSTYSLSSTLTLSKADYEKHKVYACEVTHQGLSSPVTKSFNRGEC | 0.0477
3 | hu50H2L3 (antibody, human IgG1, kappa, V domains shown) VH: EVQLVQSGAEVKKPGASVKVSCKASGFTFTNYGISWVRQAPGQGLEWMGEIYPRSGNTYYNTNFKGRVTLTADKSTSTAYMELRSLRSEDTAVYYCARNPFTTVVEGFAFWGQGTLVTVSS VL: DIVMTQSPLSLPVTPGEPASISCRSSQSILHSYGNTYLEWYLQKPGQSPQLLIYRVSNRFSGVPDRFSGSGSGTDFTLKISRVEAEDVGVYYCFQGLHVPPTFGQGTKLEIKR | 0.104
4 | hu50H2L1 (antibody, human IgG1, kappa) heavy: not shown light: DIVMTQSPLSLPVTPGEPASISCRSSQSILHSNGNTYLEWYLQKPGQSPQLLIYRVSNRFSGVPDRFSGSGSGTDFTLKISRVEAEDVGVYYCFQGLHVPPTFGQGTKLEIKRTVAAPSVFIFPPSDEQLKSGTASVVCLLNNFYPREAKVQWKVDNALQSGNSQESVTEQDSKDSTYSLSSTLTLSKADYEKHKVYACEVTHQGLSSPVTKSFNRGEC | 0.0487
5 | hu50H1L3 (antibody, human IgG1, kappa, V domains shown) VH: EVQLVQSGAEVKKPGASVKVSCKASGFTFTNYGISWVRQAPGQGLEWMGEIYPRSGNTYYNTNFKGRVTMTTDKSTSTAYMELRSLRSEDTAVYYCARNPFTTVVEGFAFWGQGTLVTVSS VL: DIVMTQSPLSLPVTPGEPASISCRSSQSILHSYGNTYLEWYLQKPGQSPQLLIYRVSNRFSGVPDRFSGSGSGTDFTLKISRVEAEDVGVYYCFQGLHVPPTFGQGTKLEIKR | 0.108
6 | hu43H2L1 (antibody, human IgG1, kappa, V domains shown) VH: EVQFVESGGGLVQPGGSLRLSCAASGFTFSNYWMNWVRQAPGKGLEWVAQVRLKSDNYATHYAESVKGRFTISREDAKNSAYLQMNSLRAEDTAVYYCSENYYGPAGPFDFWGQGTTVTVSS VL: DIQMTQSPSSVSASVGDRVTITCKASQNVHTSVAWYQQKPGKSPKLLIYSASNRYSGVPSRFSGSGSGTDFTLTISSLQPEDFATYYCQQYSSYPLTFGQGTKLEIKR | 6.17
7 | hu46H3L2 (antibody, human IgG1, kappa, V domains shown) VH: EVQLVESGGGLVKPGGSLRLSCAASGFTFSNYGMSWVRQAPGKGIKWVSTIGSGGGYTYYSDSVKGRFTISRDNAKNSLYLQMNSLRAEDTAVYYCVRHPQIGYWGQGTLVTVSS VL: DIQMTQSPSSLSASVGDRVTITCKASQSVGTAVAWYQQKPGKAPKLLIYSASSRYTGVPSRFSGSGSGTDFTLTISSLQPEDFADYFCHQYSSYPLTFGGGTKVEIKR | 0.0617
8 | hu46H1L3 (antibody, human IgG1, kappa, V domains shown) VH: EVQLVESGGGLVKPGGSLRLSCAASGFTFSNYGMSWVRQAPGKGLEWVSTIGSGGGYTYYSDSVKGRFTISRDNAKNSLYLQMNSLRAEDTAVYYCARHPQIGYWGQGTLVTVSS VL: DIQMTQSPSSLSASVGDRVTITCKASQSVGTAVAWYQQKPGKAPKLLIYSASSRYTGVPDRFSGSGSGTDFTLTISSLQPEDFADYFCHQYSSYPLTFGGGTKVEIKR | 0.123
9 | hu46H1L1 (antibody, human IgG1, kappa, V domains shown) VH: EVQLVESGGGLVKPGGSLRLSCAASGFTFSNYGMSWVRQAPGKGLEWVSTIGSGGGYTYYSDSVKGRFTISRDNAKNSLYLQMNSLRAEDTAVYYCARHPQIGYWGQGTLVTVSS VL: DIQMTQSPSSLSASVGDRVTITCKASQSVGTAVAWYQQKPGKAPKLLIYSASSRYTGVPSRFSGSGSGTDFTLTISSLQPEDFATYYCHQYSSYPLTFGGGTKVEIKR | 0.136
10 | hu46H2L1 (antibody, human IgG1, kappa, V domains shown) VH: EVQLVESGGGLVKPGGSLRLSCAASGFTFSNYGMSWVRQAPGKGLEWVSTIGSGGGYTYYSDSVKGRFTISRDNAKNSLYLQMNSLRAEDTAVYYCVRHPQIGYWGQGTLVTVSS VL: DIQMTQSPSSLSASVGDRVTITCKASQSVGTAVAWYQQKPGKAPKLLIYSASSRYTGVPSRFSGSGSGTDFTLTISSLQPEDFATYYCHQYSSYPLTFGGGTKVEIKR | 0.0788
11 | hu46H3L3 (antibody, human IgG1, kappa, V domains shown) VH: EVQLVESGGGLVKPGGSLRLSCAASGFTFSNYGMSWVRQAPGKGIKWVSTIGSGGGYTYYSDSVKGRFTISRDNAKNSLYLQMNSLRAEDTAVYYCVRHPQIGYWGQGTLVTVSS VL: DIQMTQSPSSLSASVGDRVTITCKASQSVGTAVAWYQQKPGKAPKLLIYSASSRYTGVPDRFSGSGSGTDFTLTISSLQPEDFADYFCHQYSSYPLTFGGGTKVEIKR | 0.0912
12 | hu43H1L1 (antibody, human IgG1, kappa, V domains shown) VH: EVQFVESGGGLVQPGGSLRLSCAASGFTFSNYWMNWVRQAPGKGLEWVAQVRLKSDNYATHYAESVKGRFTISRDNAKNSAYLQMNSLRAEDTAVYYCSENYYGPAGPFDFWGQGTTVTVSS VL: DIQMTQSPSSVSASVGDRVTITCKASQNVHTSVAWYQQKPGKSPKLLIYSASNRYSGVPSRFSGSGSGTDFTLTISSLQPEDFATYYCQQYSSYPLTFGQGTKLEIKR | 6.22
13 | hu46H2L3 (antibody, human IgG1, kappa, V domains shown) VH: EVQLVESGGGLVKPGGSLRLSCAASGFTFSNYGMSWVRQAPGKGLEWVSTIGSGGGYTYYSDSVKGRFTISRDNAKNSLYLQMNSLRAEDTAVYYCVRHPQIGYWGQGTLVTVSS VL: DIQMTQSPSSLSASVGDRVTITCKASQSVGTAVAWYQQKPGKAPKLLIYSASSRYTGVPDRFSGSGSGTDFTLTISSLQPEDFADYFCHQYSSYPLTFGGGTKVEIKR | 0.0805
14 | hu46H3L1 (antibody, human IgG1, kappa, V domains shown) VH: EVQLVESGGGLVKPGGSLRLSCAASGFTFSNYGMSWVRQAPGKGIKWVSTIGSGGGYTYYSDSVKGRFTISRDNAKNSLYLQMNSLRAEDTAVYYCVRHPQIGYWGQGTLVTVSS VL: DIQMTQSPSSLSASVGDRVTITCKASQSVGTAVAWYQQKPGKAPKLLIYSASSRYTGVPSRFSGSGSGTDFTLTISSLQPEDFATYYCHQYSSYPLTFGGGTKVEIKR | 0.0597
15 | hu46H4L2 (antibody, human IgG1, kappa, V domains shown) VH: EVQLVESGGGLVKPGGSLRLSCAASGFTFSNYGMSWVRQAPGKGIKWVATIGSGGGYTYYSDSVKGRFTISRDNAKNSLYLQMNSLRAEDTAVYYCVRHPQIGYWGQGTLVTVSS VL: DIQMTQSPSSLSASVGDRVTITCKASQSVGTAVAWYQQKPGKAPKLLIYSASSRYTGVPSRFSGSGSGTDFTLTISSLQPEDFADYFCHQYSSYPLTFGGGTKVEIKR | 0.079
16 | hu46H4L1 (antibody, human IgG1, kappa, V domains shown) VH: EVQLVESGGGLVKPGGSLRLSCAASGFTFSNYGMSWVRQAPGKGIKWVATIGSGGGYTYYSDSVKGRFTISRDNAKNSLYLQMNSLRAEDTAVYYCVRHPQIGYWGQGTLVTVSS VL: DIQMTQSPSSLSASVGDRVTITCKASQSVGTAVAWYQQKPGKAPKLLIYSASSRYTGVPSRFSGSGSGTDFTLTISSLQPEDFATYYCHQYSSYPLTFGGGTKVEIKR | 0.0843
17 | hu46H1L2 (antibody, human IgG1, kappa, V domains shown) VH: EVQLVESGGGLVKPGGSLRLSCAASGFTFSNYGMSWVRQAPGKGLEWVSTIGSGGGYTYYSDSVKGRFTISRDNAKNSLYLQMNSLRAEDTAVYYCARHPQIGYWGQGTLVTVSS VL: DIQMTQSPSSLSASVGDRVTITCKASQSVGTAVAWYQQKPGKAPKLLIYSASSRYTGVPSRFSGSGSGTDFTLTISSLQPEDFADYFCHQYSSYPLTFGGGTKVEIKR | 0.0813
18 | hu43H3L1 (antibody, human IgG1, kappa, V domains shown) VH: EVQFVESGGGLVQPGGSLRLSCAASGFTFSNYWMNWLRQAPGKGLEWVAQVRLKSDNYATHYAESVKGRFTISREDAKNSAYLQMNSLRAEDTAVYYCSENYYGPAGPFDFWGQGTTVTVSS VL: DIQMTQSPSSVSASVGDRVTITCKASQNVHTSVAWYQQKPGKSPKLLIYSASNRYSGVPSRFSGSGSGTDFTLTISSLQPEDFATYYCQQYSSYPLTFGQGTKLEIKR | 2.83
19 | hu71H3L1 (antibody, human IgG1, kappa) heavy: not shown light: DIVMTQTPLSLPVTPGEPASISCRSSQSLVHSYGNTYLHWYLQKPGQSPQLLIYKVSNRFSGVPDRFSGSGSGTDFTLKISRVEAEDVGVYYCSQTTHVPWTFGGGTKVEIKRTVAAPSVFIFPPSDEQLKSGTASVVCLLNNFYPREAKVQWKVDNALQSGNSQESVTEQDSKDSTYSLSSTLTLSKADYEKHKVYACEVTHQGLSSPVTKSFNRGEC | 0.086
20 | hu71H1L2 (antibody, human IgG1, kappa) heavy: not shown light: DVVVTQTPLSLPVTPGEPASISCRSSQSLVHSYGNTYLHWYLQKPGQSPQLLIYKVSNRFSGVPDRFSGSGSGTDFTLKISRVEAEDVGVYYCSQTTHVPWTFGGGTKVEIKRTVAAPSVFIFPPSDEQLKSGTASVVCLLNNFYPREAKVQWKVDNALQSGNSQESVTEQDSKDSTYSLSSTLTLSKADYEKHKVYACEVTHQGLSSPVTKSFNRGEC | 0.11
21 | hu71H1L1 (antibody, human IgG1, kappa) heavy: not shown light: DIVMTQTPLSLPVTPGEPASISCRSSQSLVHSYGNTYLHWYLQKPGQSPQLLIYKVSNRFSGVPDRFSGSGSGTDFTLKISRVEAEDVGVYYCSQTTHVPWTFGGGTKVEIKRTVAAPSVFIFPPSDEQLKSGTASVVCLLNNFYPREAKVQWKVDNALQSGNSQESVTEQDSKDSTYSLSSTLTLSKADYEKHKVYACEVTHQGLSSPVTKSFNRGEC | 0.12
